B1: unnamed (parent)
chain 1: VHQRIASWQNLGAVYCSTVVPSDDVTVVYQNGLPVISVRLPSRRERCQFTLKPISDSVGVFLRQLQEEDRGIDRVAIYSPDGVRVAASTGIDLLLLDDFKLVINDLTYHVRPPKRDLLSHENAATLNDVKTLVQQLYTTLCIEQHQLNKERELIERLEDLKEQLAPLEKVRIEISRKAEKRTTLVLWGGLAYMATQFGILARLTWWEYSWDIMEPVTYFITYGSAMAMYAYFVMTRQEYVYPEARDRQYLLFFHKGAKKSRFDLEKYNQLKDAIAQAEMDLKRLRDPLQVHLPLRQIGEKD
chain 2: DIDTAAKFIGAGAATVGVAGSGAGIGTVFGSLIIGYARNPSLKQQLFSYAILGFALSEAMGLFCLMVAFLILFAM

Variants of: B1
Test: MYTH (membrane yeast two-hybrid) quantitative β-Gal activity assay
Conditions: with partner chain of the complex shown; yeast strain NMY51; n = 3; 6 colonies for each independent experiment; read off a plot

Variant | response [units]
chain 1 Q196A I199P L200P W205A | 26

— publication PMC7078472
